The target of assay [1] is TBC-DEG:αβ-tubulin complex (S. cerevisiae | porcine) (UniProt P40987).
In assay [2] the target is TBC-DEG complex (TBCD-TBCE-Arl2 GTPase heterotrimer) (S. cerevisiae) (UniProt P40987).
Assay [3] shares this target. The source holds these as a separate data set.
Assay [4] shares this target. The experiment in a line: SEC-MALS; WTC-03S5 column; purified TBC-DEG (subunits co-expressed and co-purified), αβ-tubulin, TBCC and their complexes; ternary complex with GDP·ALFx (wild type) or GTP (Q73L).

TBC-DEG complex (TBCD-TBCE-Arl2 GTPase heterotrimer) (S. cerevisiae), sequence (P40987 whole entry, chain 1 of 3): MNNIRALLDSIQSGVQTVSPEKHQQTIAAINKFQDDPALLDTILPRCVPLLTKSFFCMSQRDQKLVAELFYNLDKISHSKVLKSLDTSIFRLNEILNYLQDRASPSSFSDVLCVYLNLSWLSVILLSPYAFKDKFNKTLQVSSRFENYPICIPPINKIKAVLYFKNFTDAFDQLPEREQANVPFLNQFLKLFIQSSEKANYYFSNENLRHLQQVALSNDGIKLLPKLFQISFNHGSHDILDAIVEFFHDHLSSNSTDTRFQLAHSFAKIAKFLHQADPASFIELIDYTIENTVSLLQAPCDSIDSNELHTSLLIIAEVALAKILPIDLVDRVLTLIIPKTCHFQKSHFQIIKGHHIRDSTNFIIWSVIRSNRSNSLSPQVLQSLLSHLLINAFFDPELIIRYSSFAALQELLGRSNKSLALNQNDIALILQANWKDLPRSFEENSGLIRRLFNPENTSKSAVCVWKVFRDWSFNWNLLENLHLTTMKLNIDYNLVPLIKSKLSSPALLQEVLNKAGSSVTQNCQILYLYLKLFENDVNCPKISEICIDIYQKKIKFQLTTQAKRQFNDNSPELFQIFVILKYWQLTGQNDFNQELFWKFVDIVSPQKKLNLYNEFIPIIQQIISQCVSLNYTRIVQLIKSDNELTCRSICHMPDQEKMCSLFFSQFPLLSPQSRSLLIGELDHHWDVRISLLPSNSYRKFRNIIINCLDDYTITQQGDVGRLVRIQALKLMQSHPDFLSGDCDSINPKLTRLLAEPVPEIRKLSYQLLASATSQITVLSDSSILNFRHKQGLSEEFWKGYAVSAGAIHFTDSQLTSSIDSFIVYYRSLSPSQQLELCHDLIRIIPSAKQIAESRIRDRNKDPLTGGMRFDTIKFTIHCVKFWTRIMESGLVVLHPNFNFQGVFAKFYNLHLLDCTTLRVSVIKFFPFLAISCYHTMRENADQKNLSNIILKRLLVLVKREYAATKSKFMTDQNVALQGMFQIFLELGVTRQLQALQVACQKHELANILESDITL
TBC-DEG complex (TBCD-TBCE-Arl2 GTPase heterotrimer) (S. cerevisiae), sequence (P39937 whole entry, chain 2 of 3, further chain): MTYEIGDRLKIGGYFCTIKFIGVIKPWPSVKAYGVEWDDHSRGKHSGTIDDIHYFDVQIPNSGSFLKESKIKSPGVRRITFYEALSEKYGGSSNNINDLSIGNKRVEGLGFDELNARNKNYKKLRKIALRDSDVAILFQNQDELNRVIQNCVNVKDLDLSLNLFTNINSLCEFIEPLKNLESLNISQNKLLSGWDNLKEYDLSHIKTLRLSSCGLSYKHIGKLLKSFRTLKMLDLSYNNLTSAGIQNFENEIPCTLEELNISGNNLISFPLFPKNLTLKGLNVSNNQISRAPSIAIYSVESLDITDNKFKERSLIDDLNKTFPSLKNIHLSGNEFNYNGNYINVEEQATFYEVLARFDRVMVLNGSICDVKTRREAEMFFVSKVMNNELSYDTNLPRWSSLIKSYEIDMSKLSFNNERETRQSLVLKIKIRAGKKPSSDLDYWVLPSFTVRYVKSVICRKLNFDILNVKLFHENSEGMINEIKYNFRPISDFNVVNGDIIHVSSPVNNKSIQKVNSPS
TBC-DEG complex (TBCD-TBCE-Arl2 GTPase heterotrimer) (S. cerevisiae), sequence (P39110 whole entry, chain 3 of 3, further chain): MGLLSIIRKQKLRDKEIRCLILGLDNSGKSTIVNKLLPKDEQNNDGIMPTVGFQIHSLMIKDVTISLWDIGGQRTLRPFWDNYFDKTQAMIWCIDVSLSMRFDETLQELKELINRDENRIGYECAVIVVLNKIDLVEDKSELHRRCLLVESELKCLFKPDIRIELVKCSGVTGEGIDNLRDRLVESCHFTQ

In assay [1], “TBCC loop-deleted mutant Δ233-245 (from UniProt P46670 1-232; P46670 246-267) (natural protein)” showed a steady-state GTP hydrolysis kcat, 1 μM TBC-DEG:1 μM TBCC-Δ233-245:1 μM αβ-tub of 5670 M⁻¹ s⁻¹.
With “Tubulin cofactor C (TBCC), S. cerevisiae Cin2p (from UniProt P46670 1-268) (natural protein)”, the steady-state GTP hydrolysis kcat (malachite green), 1 μM TBC-DEG:1 μM TBCC in assay [2] was 12800 M⁻¹ s⁻¹.
Consider “porcine brain αβ-tubulin dimer (from UniProt P02550 1-451; P02554 1-445) (complex)”, for which, in assay [2], the steady-state GTP hydrolysis kcat (malachite green), 1 μM TBC-DEG:1 μM αβ-tub was determined as 6670 M⁻¹ s⁻¹; the steady-state GTP hydrolysis kcat, 1 μM TBC-DEG and 1 μM TBCC with αβ-tubulin titrated 0.25-3.0 μM (kcat 1.10 to 2.77) stood at 46200 M⁻¹ s⁻¹. For the same substance, the steady-state GTP hydrolysis kcat at 3 μM αβ-tubulin, 1:3:1 TBCC:αβ-tubulin:TBC-DEG (number as in the text) in assay [3] came to 0.05 s⁻¹. The substance further came in with a stoichiometry N in assay [4] of 1.

The values above are taken from article PMC4574351, “Tubulin cofactors and Arl2 are cage-like chaperones that regulate the soluble αβ-tubulin pool for microtubule dynamics” (eLife, 2015).
